Results published in ChEMBL document CHEMBL1135749, “Stereoselective synthesis and antiviral activity of D-2',3'-didehydro-2',3'-dideoxy-2'-fluoro-4'-thionucleosides” (J Med Chem, 2002).

Molecular target: Adenosine deaminase (Bos taurus) (UniProt P56658)
Assay: Binding efficiency towards mammalian Adenosine deaminase from calf intestinal mucosa

B1: Adenosine deaminase (Bos taurus), P56658 (protein)
chain: MAQTPAFNKPKVELHVHLDGAIKPETILYYGRKRGIALPADTPEELQNIIGMDKPLSLPEFLAKFDYYMPAIAGCREAVKRIAYEFVEMKAKDGVVYVEVRYSPHLLANSKVEPIPWNQAEGDLTPDEVVSLVNQGLQEGERDFGVKVRSILCCMRHQPSWSSEVVELCKKYREQTVVAIDLAGDETIEGSSLFPGHVKAYAEAVKSGVHRTVHAGEVGSANVVKEAVDTLKTERLGHGYHTLEDATLYNRLRQENMHFEVCPWSSYLTGAWKPDTEHPVVRFKNDQVNYSLNTDDPLIFKSTLDTDYQMTKNEMGFTEEEFKRLNINAAKSSFLPEDEKKELLDLLYKAYGMPSPASAEQCL
- Km: 18.3 µM
